From US10584350B2, “Structurally modified COI1” (Board of Trustees of Michigan State University, priority 2016, dated 2020)

The molecules below were run on COI1-JAZ9 interaction (assay: Y2H assays on plates for protein-protein interaction). Conditions: 10 μM COR, yeast.
Assay type: cell-based, Arabidopsis
Protocol: Yeast EGY48 strain carrying the p8Op:LacZ reporter plasmid was co-transformed with pGilda:COI1 (or COI1 mutants) and pB42AD:JAZ9 (or other JAZs) (Clontech). Colonies were selected on SD minimal plates (BD Biosciences) supplemented with the—uracil (U)/-tryptophan (W)/-histidine (H) amino acid drop out solution (Clontech). Yeast colonies were cultured overnight in liquid SD-UWH medium, harvested, washed twice in sterile water, and the absorbance (OD600) of the cultures was adjusted to 0.2 in liquid SD galactose/raffinose-UWH medium (BD Biosciences).
For Y2H assays on plates, 10-μL culture was spotted onto SD galactose/raffinose-UWH plates with 80 μg/mL X-gal and 10 μM COR (Sigma-Aldrich). Blue color indicated protein-protein interactions after 5-7 days of incubation at 30° C.

Row | Molecule | COR-dependent COI1-JAZ9 interaction
1 | F443: COI1 alanine substitution mutant at F443 (protein, UniProt O04197 1-592, looked up, variant F443A) Coronatine-insensitive …: MEDPDIKRCKLSCVATVDDVIEQVMTYITDPKDRDSASLVCRRWFKIDSETREHVTMALCYTATPDRLSRRFPNLRSLKLKGKPRAAMFNLIPENWGGYVTPWVTEISNNLRQLKSVHFRRMIVSDLDLDRLAKARADDLETLKLDKCSGFTTDGLLSIVTHCRKIKTLLMEESSFSEKDGKWLHELAQHNTSLEVLNFYMTEFAKISPKDLETIARNCRSLVSVKVGDFEILELVGFFKAAANLEEFCGGSLNEDIGMPEKYMNLVFPRKLCRLGLSYMGPNEMPILFPFAAQIRKLDLLYALLETEDHCTLIQKCPNLEVLETRNVIGDRGLEVLAQYCKQLKRLRIERGADEQGMEDEEGLVSQRGLIALAQGCQELEYMAVYVSDITNESLESIGTYLKNLCDFRLVLLDREERITDLPLDNGVRSLLIGCKKLRRFAAYLRQGGLTDLGLSYIGQYSPNVRWMLLGYVGESDEGLMEFSRGCPNLQKLEMRGCCFSERAIAAAVTKLPSLRYLWVQGYRASMTGQDLMQMARPYWNIELIPSRRVPEVNQQGEIREMEHPAHILAYYSLAGQRTDCPTTVRVLKEPI | reduced
2 | Q491: COI1 alanine substitution mutant at Q491 (protein, UniProt O04197 1-592, looked up, variant Q491A) Coronatine-insensitive …: MEDPDIKRCKLSCVATVDDVIEQVMTYITDPKDRDSASLVCRRWFKIDSETREHVTMALCYTATPDRLSRRFPNLRSLKLKGKPRAAMFNLIPENWGGYVTPWVTEISNNLRQLKSVHFRRMIVSDLDLDRLAKARADDLETLKLDKCSGFTTDGLLSIVTHCRKIKTLLMEESSFSEKDGKWLHELAQHNTSLEVLNFYMTEFAKISPKDLETIARNCRSLVSVKVGDFEILELVGFFKAAANLEEFCGGSLNEDIGMPEKYMNLVFPRKLCRLGLSYMGPNEMPILFPFAAQIRKLDLLYALLETEDHCTLIQKCPNLEVLETRNVIGDRGLEVLAQYCKQLKRLRIERGADEQGMEDEEGLVSQRGLIALAQGCQELEYMAVYVSDITNESLESIGTYLKNLCDFRLVLLDREERITDLPLDNGVRSLLIGCKKLRRFAFYLRQGGLTDLGLSYIGQYSPNVRWMLLGYVGESDEGLMEFSRGCPNLAKLEMRGCCFSERAIAAAVTKLPSLRYLWVQGYRASMTGQDLMQMARPYWNIELIPSRRVPEVNQQGEIREMEHPAHILAYYSLAGQRTDCPTTVRVLKEPI | reduced
3 | R516: COI1 alanine substitution mutant at R516 (protein, UniProt O04197 1-592, looked up, variant R516A) Coronatine-insensitive …: MEDPDIKRCKLSCVATVDDVIEQVMTYITDPKDRDSASLVCRRWFKIDSETREHVTMALCYTATPDRLSRRFPNLRSLKLKGKPRAAMFNLIPENWGGYVTPWVTEISNNLRQLKSVHFRRMIVSDLDLDRLAKARADDLETLKLDKCSGFTTDGLLSIVTHCRKIKTLLMEESSFSEKDGKWLHELAQHNTSLEVLNFYMTEFAKISPKDLETIARNCRSLVSVKVGDFEILELVGFFKAAANLEEFCGGSLNEDIGMPEKYMNLVFPRKLCRLGLSYMGPNEMPILFPFAAQIRKLDLLYALLETEDHCTLIQKCPNLEVLETRNVIGDRGLEVLAQYCKQLKRLRIERGADEQGMEDEEGLVSQRGLIALAQGCQELEYMAVYVSDITNESLESIGTYLKNLCDFRLVLLDREERITDLPLDNGVRSLLIGCKKLRRFAFYLRQGGLTDLGLSYIGQYSPNVRWMLLGYVGESDEGLMEFSRGCPNLQKLEMRGCCFSERAIAAAVTKLPSLAYLWVQGYRASMTGQDLMQMARPYWNIELIPSRRVPEVNQQGEIREMEHPAHILAYYSLAGQRTDCPTTVRVLKEPI | reduced
4 | L470: COI1 alanine substitution mutant at L470 (protein, UniProt O04197 1-592, looked up, variant L470A) Coronatine-insensitive …: MEDPDIKRCKLSCVATVDDVIEQVMTYITDPKDRDSASLVCRRWFKIDSETREHVTMALCYTATPDRLSRRFPNLRSLKLKGKPRAAMFNLIPENWGGYVTPWVTEISNNLRQLKSVHFRRMIVSDLDLDRLAKARADDLETLKLDKCSGFTTDGLLSIVTHCRKIKTLLMEESSFSEKDGKWLHELAQHNTSLEVLNFYMTEFAKISPKDLETIARNCRSLVSVKVGDFEILELVGFFKAAANLEEFCGGSLNEDIGMPEKYMNLVFPRKLCRLGLSYMGPNEMPILFPFAAQIRKLDLLYALLETEDHCTLIQKCPNLEVLETRNVIGDRGLEVLAQYCKQLKRLRIERGADEQGMEDEEGLVSQRGLIALAQGCQELEYMAVYVSDITNESLESIGTYLKNLCDFRLVLLDREERITDLPLDNGVRSLLIGCKKLRRFAFYLRQGGLTDLGLSYIGQYSPNVRWMLAGYVGESDEGLMEFSRGCPNLQKLEMRGCCFSERAIAAAVTKLPSLRYLWVQGYRASMTGQDLMQMARPYWNIELIPSRRVPEVNQQGEIREMEHPAHILAYYSLAGQRTDCPTTVRVLKEPI | reduced
5 | Y472: COI1 alanine substitution mutant at Y472 (protein, UniProt O04197 1-592, looked up, variant Y472A) Coronatine-insensitive …: MEDPDIKRCKLSCVATVDDVIEQVMTYITDPKDRDSASLVCRRWFKIDSETREHVTMALCYTATPDRLSRRFPNLRSLKLKGKPRAAMFNLIPENWGGYVTPWVTEISNNLRQLKSVHFRRMIVSDLDLDRLAKARADDLETLKLDKCSGFTTDGLLSIVTHCRKIKTLLMEESSFSEKDGKWLHELAQHNTSLEVLNFYMTEFAKISPKDLETIARNCRSLVSVKVGDFEILELVGFFKAAANLEEFCGGSLNEDIGMPEKYMNLVFPRKLCRLGLSYMGPNEMPILFPFAAQIRKLDLLYALLETEDHCTLIQKCPNLEVLETRNVIGDRGLEVLAQYCKQLKRLRIERGADEQGMEDEEGLVSQRGLIALAQGCQELEYMAVYVSDITNESLESIGTYLKNLCDFRLVLLDREERITDLPLDNGVRSLLIGCKKLRRFAFYLRQGGLTDLGLSYIGQYSPNVRWMLLGAVGESDEGLMEFSRGCPNLQKLEMRGCCFSERAIAAAVTKLPSLRYLWVQGYRASMTGQDLMQMARPYWNIELIPSRRVPEVNQQGEIREMEHPAHILAYYSLAGQRTDCPTTVRVLKEPI | reduced
6 | M88: COI1 alanine substitution mutant at M88 (protein, UniProt O04197 1-592, looked up, variant M88A) Coronatine-insensitive …: MEDPDIKRCKLSCVATVDDVIEQVMTYITDPKDRDSASLVCRRWFKIDSETREHVTMALCYTATPDRLSRRFPNLRSLKLKGKPRAAAFNLIPENWGGYVTPWVTEISNNLRQLKSVHFRRMIVSDLDLDRLAKARADDLETLKLDKCSGFTTDGLLSIVTHCRKIKTLLMEESSFSEKDGKWLHELAQHNTSLEVLNFYMTEFAKISPKDLETIARNCRSLVSVKVGDFEILELVGFFKAAANLEEFCGGSLNEDIGMPEKYMNLVFPRKLCRLGLSYMGPNEMPILFPFAAQIRKLDLLYALLETEDHCTLIQKCPNLEVLETRNVIGDRGLEVLAQYCKQLKRLRIERGADEQGMEDEEGLVSQRGLIALAQGCQELEYMAVYVSDITNESLESIGTYLKNLCDFRLVLLDREERITDLPLDNGVRSLLIGCKKLRRFAFYLRQGGLTDLGLSYIGQYSPNVRWMLLGYVGESDEGLMEFSRGCPNLQKLEMRGCCFSERAIAAAVTKLPSLRYLWVQGYRASMTGQDLMQMARPYWNIELIPSRRVPEVNQQGEIREMEHPAHILAYYSLAGQRTDCPTTVRVLKEPI | reduced
7 | K492: COI1 alanine substitution mutant at K492 (protein, UniProt O04197 1-592, looked up, variant K492A) Coronatine-insensitive …: MEDPDIKRCKLSCVATVDDVIEQVMTYITDPKDRDSASLVCRRWFKIDSETREHVTMALCYTATPDRLSRRFPNLRSLKLKGKPRAAMFNLIPENWGGYVTPWVTEISNNLRQLKSVHFRRMIVSDLDLDRLAKARADDLETLKLDKCSGFTTDGLLSIVTHCRKIKTLLMEESSFSEKDGKWLHELAQHNTSLEVLNFYMTEFAKISPKDLETIARNCRSLVSVKVGDFEILELVGFFKAAANLEEFCGGSLNEDIGMPEKYMNLVFPRKLCRLGLSYMGPNEMPILFPFAAQIRKLDLLYALLETEDHCTLIQKCPNLEVLETRNVIGDRGLEVLAQYCKQLKRLRIERGADEQGMEDEEGLVSQRGLIALAQGCQELEYMAVYVSDITNESLESIGTYLKNLCDFRLVLLDREERITDLPLDNGVRSLLIGCKKLRRFAFYLRQGGLTDLGLSYIGQYSPNVRWMLLGYVGESDEGLMEFSRGCPNLQALEMRGCCFSERAIAAAVTKLPSLRYLWVQGYRASMTGQDLMQMARPYWNIELIPSRRVPEVNQQGEIREMEHPAHILAYYSLAGQRTDCPTTVRVLKEPI | reduced
8 | L469: COI1 alanine substitution mutant at L469 (protein, UniProt O04197 1-592, looked up, variant L469A) Coronatine-insensitive …: MEDPDIKRCKLSCVATVDDVIEQVMTYITDPKDRDSASLVCRRWFKIDSETREHVTMALCYTATPDRLSRRFPNLRSLKLKGKPRAAMFNLIPENWGGYVTPWVTEISNNLRQLKSVHFRRMIVSDLDLDRLAKARADDLETLKLDKCSGFTTDGLLSIVTHCRKIKTLLMEESSFSEKDGKWLHELAQHNTSLEVLNFYMTEFAKISPKDLETIARNCRSLVSVKVGDFEILELVGFFKAAANLEEFCGGSLNEDIGMPEKYMNLVFPRKLCRLGLSYMGPNEMPILFPFAAQIRKLDLLYALLETEDHCTLIQKCPNLEVLETRNVIGDRGLEVLAQYCKQLKRLRIERGADEQGMEDEEGLVSQRGLIALAQGCQELEYMAVYVSDITNESLESIGTYLKNLCDFRLVLLDREERITDLPLDNGVRSLLIGCKKLRRFAFYLRQGGLTDLGLSYIGQYSPNVRWMALGYVGESDEGLMEFSRGCPNLQKLEMRGCCFSERAIAAAVTKLPSLRYLWVQGYRASMTGQDLMQMARPYWNIELIPSRRVPEVNQQGEIREMEHPAHILAYYSLAGQRTDCPTTVRVLKEPI | reduced
